Assay results: patent publication US20210221878A1

Experiments:
[1] = target: αSyn WT PFF (preformed fibrils of recombinant wild-type human α-synuclein) (human) (UniProt P37840); assay: solution competition ELISA, free antibody captured on PFF plate; binding potency, PFF (ng/ml)
[2] = target: αSyn WT PFF (preformed fibrils of recombinant wild-type human α-synuclein) (human) (UniProt P37840); assay: ratio of monomer to PFF binding potency, solution competition ELISA
[3] = target: full-length human recombinant wild-type α-synuclein monomer (human) (UniProt P37840); assay: solution competition ELISA, free antibody captured on PFF plate; binding potency, monomer (ng/ml)

EC50 [1] [µg/mL]	Mono/PFF Ratio [2]	EC50 [3] [µg/mL]	Substance
0.0016	38	0.062	LB509 (antibody)
0.0292	0.27	0.008	MJFR1 (antibody)
0.00051	7230	3.66	MJFR14642 (antibody)
0.109	0.47	0.0512	Syn303 (antibody)
